Two substances from article PMC10883267 (2023) can be followed below.

Common to all, as to assay: pulldown with E. coli lysates, quantified
Experiment [1] addresses eIF4E-binding motif of human eIF4G (608-647) (UniProt Q04637). To be noted: n = 3 independent experiments; parent: est. 0.30; read off a plot.
Experiment [2] addresses eIF4E-binding motif of human eIF4ENIF1 (27-63) (UniProt Q9NRA8). The conditions noted are these: n = 3 independent experiments; parent: est. 2.5; read off a plot.
In experiment [3] the target is eIF4E-binding motif of human eIF4EBP1 (50-83) (UniProt Q13541). To be noted: n = 3 independent experiments; parent: est. 0.90; read off a plot.
Sequence of eIF4E-binding motif of human eIF4EBP1 (50-83) (Q13541 50-83): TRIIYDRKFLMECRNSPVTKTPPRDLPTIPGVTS

Sequence of mouse eIF4E1B (63-244) (from UniProt Q3UTA9) Lateral (V91, T92, I107 mutated; new residues not printed) (Q3UTA9 63-244, change not shown): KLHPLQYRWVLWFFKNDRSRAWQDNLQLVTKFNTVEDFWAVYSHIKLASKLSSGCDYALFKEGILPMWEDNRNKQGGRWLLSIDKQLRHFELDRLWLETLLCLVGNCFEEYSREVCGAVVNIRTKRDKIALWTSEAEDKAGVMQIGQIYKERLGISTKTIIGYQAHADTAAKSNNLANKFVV
Sequence of mouse eIF4E1B (63-244) (from UniProt Q3UTA9) Dorsal (W101 mutated; new residue not printed) (Q3UTA9 63-244, change not shown): as above
Sequence of eIF4E-binding motif of human eIF4ENIF1 (27-63) (Q9NRA8 27-63): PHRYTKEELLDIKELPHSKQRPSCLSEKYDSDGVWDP
Sequence of eIF4E-binding motif of human eIF4G (608-647) (Q04637 608-647): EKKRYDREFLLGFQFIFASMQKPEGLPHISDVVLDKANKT

Regarding “mouse eIF4E1B (63-244) (from UniProt Q3UTA9) Dorsal (W101 mutated; new residue not printed)”, the other: Binding (rel. to Mm eIF4E) (rel. to Mm eIF4E) stood at 0.2 in experiment [1], 0.15 in experiment [2] and 0.1 in experiment [3].

Take “mouse eIF4E1B (63-244) (from UniProt Q3UTA9) Lateral (V91, T92, I107 mutated; new residues not printed)”: the other: Binding (rel. to Mm eIF4E) (rel. to Mm eIF4E) in experiment [1] is 0.12; in experiment [2] it was 0.9; in experiment [3], 0.2.
